{"source": "paper PMC7612262", "about": "(Structure (London, England : 1993), 2006)", "proteins": {"B1": {"name": "MS2 coat protein Asn87Ser mutant (natural protein, bacteriophage MS2)", "chain": "ASNFTQFVLVDNGGTGDVTVAPSNFANGVAEWISSNSRSQAYKVTCSVRQSSAQNRKYTIKVEVPKVATQTVGGVELPVAAWRSYLSMELTIPIFATNSDCELIVKAMQGLLKDGNPIPSAIAANSGIY"}, "B2": {"name": "MS2 coat protein Asn87Ser, Glu89Lys double mutant (natural protein, bacteriophage MS2)", "chain": "B1 chain with E89K"}}, "biological_target": "the molecule itself", "assay": "crystal structure", "note": "Residue numbers refer to the chain shown, from its start.", "data": [{"protein": "B1", "values": [{"measurement": "binding result", "result": "binds"}]}, {"protein": "B2", "values": [{"measurement": "binding result", "result": "binds"}]}]}
